# Values quoted from earlier work, collected in paper PMC3214078.
# Experiments:
# [1] = target: Histone H3 peptide N-terminal tail (Homo sapiens) (UniProt P68431); assay: ITC
# [2] = target: Histone H3 peptide N-terminal tail (Homo sapiens) (UniProt P68431); assay: tryptophan fluorescence
# UHRF1 PHD, sequence (Q96T88 307-369): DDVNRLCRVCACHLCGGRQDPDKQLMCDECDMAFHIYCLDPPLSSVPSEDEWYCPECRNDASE
substance,measurement,setting,value
UHRF1 PHD (from UniProt Q96T88),Kd,[1],930 nM
same,Kd,[2],3800 nM
